Reference: US20160200831A1 (Sanofi, published 2016)

Columns and labels:
[1] = target: T1, cyno PAI-1 captured on immobilized human vitronectin (cynomolgus monkey; human, UniProt P04004 20-478, limits assumed); experiment: Biacore, cPAI-1 on vitronectin chip, two state reaction model (ka1)
T1 construct: non-covalent complex formed on the chip; also called cPAI-1/Vn

[2] = target: T1, cyno PAI-1 captured on immobilized …; experiment: Biacore, cPAI-1 on vitronectin chip, two state reaction model
[3] = target: T2, human PAI-1 captured on immobilized human vitronectin (human, UniProt P04004 20-478); experiment: Biacore, hPAI-1 on vitronectin chip, two state reaction model (kd1)
T2 construct: non-covalent complex formed on the chip or plate; also called PAI-1/Vn complex; Vn captured hPAI-1
T2 sequence (chain, as listed by the source limits assumed, chain 1 of 2): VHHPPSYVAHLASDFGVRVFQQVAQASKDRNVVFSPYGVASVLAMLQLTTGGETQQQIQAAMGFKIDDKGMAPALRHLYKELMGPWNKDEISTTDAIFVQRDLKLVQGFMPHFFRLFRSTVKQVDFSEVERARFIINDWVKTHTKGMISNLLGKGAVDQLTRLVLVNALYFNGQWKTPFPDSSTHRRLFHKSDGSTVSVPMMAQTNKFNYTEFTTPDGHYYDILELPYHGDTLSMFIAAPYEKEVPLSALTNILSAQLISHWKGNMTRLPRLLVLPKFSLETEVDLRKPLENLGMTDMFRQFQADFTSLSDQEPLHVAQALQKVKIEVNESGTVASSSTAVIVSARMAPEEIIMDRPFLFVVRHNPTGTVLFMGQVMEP
T2 sequence (P04004 20-478 limits assumed, chain 2 of 2): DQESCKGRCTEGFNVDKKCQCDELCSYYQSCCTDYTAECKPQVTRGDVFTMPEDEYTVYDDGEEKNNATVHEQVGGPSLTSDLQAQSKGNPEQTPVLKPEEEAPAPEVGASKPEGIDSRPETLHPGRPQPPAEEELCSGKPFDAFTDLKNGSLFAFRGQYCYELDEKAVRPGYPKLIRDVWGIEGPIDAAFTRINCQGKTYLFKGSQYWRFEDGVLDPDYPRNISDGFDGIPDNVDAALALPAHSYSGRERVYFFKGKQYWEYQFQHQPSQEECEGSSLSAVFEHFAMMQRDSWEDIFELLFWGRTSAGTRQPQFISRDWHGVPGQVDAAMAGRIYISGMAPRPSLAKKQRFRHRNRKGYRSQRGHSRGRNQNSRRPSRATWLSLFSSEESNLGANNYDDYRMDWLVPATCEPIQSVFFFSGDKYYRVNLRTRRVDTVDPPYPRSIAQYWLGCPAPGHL

human PAI-1 [4] = target: T3, human PAI-1 (human, UniProt P05121 24-402); experiment: cell-based or functional assay
[5] = target: T2, human PAI-1 captured on immobilized …; experiment: Biacore, hPAI-1 on vitronectin chip, two state reaction model (ka1)
[6] = target: T1, cyno PAI-1 captured on immobilized …; experiment: Biacore, cPAI-1 on vitronectin chip, two state reaction model (kd1)
[7] = target: T2, human PAI-1 captured on immobilized …; experiment: Biacore, hPAI-1 on vitronectin chip, two state reaction model
cynomolgus PAI-1 [8] = target: T4, cynomolgus PAI-1 (cynomolgus monkey (Macaca fascicularis), UniProt P05121 24-402 (human entry)); experiment: cell-based or functional assay
T4 sequence (P05121 other isoform, or with tags, fused parts or gaps limits assumed): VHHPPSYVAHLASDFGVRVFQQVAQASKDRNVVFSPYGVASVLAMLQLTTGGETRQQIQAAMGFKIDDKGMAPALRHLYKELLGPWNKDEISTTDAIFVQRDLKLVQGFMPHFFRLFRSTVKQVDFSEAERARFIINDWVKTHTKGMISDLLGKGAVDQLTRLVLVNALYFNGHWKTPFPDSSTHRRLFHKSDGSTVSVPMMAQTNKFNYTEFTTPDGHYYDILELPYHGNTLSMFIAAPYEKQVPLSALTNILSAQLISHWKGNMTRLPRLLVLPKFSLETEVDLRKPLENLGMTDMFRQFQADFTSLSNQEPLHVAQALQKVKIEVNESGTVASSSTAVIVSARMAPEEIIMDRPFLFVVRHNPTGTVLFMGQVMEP

human PAI-1 [9] = target: T3, human PAI-1; experiment: cell-based or functional assay; remark: listed apart in the source
human PAI-1 [10] = target: T3, human PAI-1; experiment: Biacore, mAb on anti-human IgG Fc chip, 1:1 model
[11] = target: T5, glycosylated human PAI-1 (active form) (human, UniProt P05121 24-402, glycosylated); experiment: cell-based or functional assay
cynomolgus PAI-1 [12] = target: T4, cynomolgus PAI-1; experiment: Biacore, mAb on anti-human IgG Fc chip / cyno PAI-1, 1:1 model
[13] = target: T5, glycosylated human PAI-1 (active form); experiment: cell-based or functional assay; remark: listed apart in the source
cynomolgus PAI-1 [14] = target: T4, cynomolgus PAI-1; experiment: Biacore, hybridoma supernatant
human PAI-1 [15] = target: T3, human PAI-1; experiment: Biacore, hybridoma supernatant
[16] = target: T5, glycosylated human PAI-1 (active form); experiment: cell-based or functional assay; remark: listed apart in the source
human PAI-1 [17] = target: T3, human PAI-1; experiment: Biacore reverse assay, mAb captured by anti-mouse IgG Fc, 25 C
Protocol: (§1) In kinetics measurement, the antibodies were evaluated in reverse at 25° C. In the reverse assay, PAI-1 antibodies were captured to the anti-mouse IgG Fc antibody surface prepared on CM5 chip followed by injecting the serial 2× dilutions of PAI-1 proteins (human or cyno) starting at 40 nM. A high flow rate was chosen at 50 ul/min to avoid mass transportation limitation. Two thousand seconds was allowed for dissociation time to accommodate for the slow off rate of the selected antibodies. The chip was regenerated by glycine-HCl, pH 1.7 buffer after each round of antibody-PAI-1 binding. Kinetics data analysis was performed using Biacore BIAevaluation software. The sensorgrams were double-referenced by subtracting the reference flow cell values and the blank buffer values. The sensorgrams were fitted by using the simulated kinetics 1:1 (Langmuir) model with local Rmax.

[18] = target: T5, glycosylated human PAI-1 (active form); experiment: Biacore (summary table)
Protocol: as §1

human PAI-1 [19] = target: T3, human PAI-1; experiment: cell-based or functional assay; remark: listed apart in the source
[20] = target: T5, glycosylated human PAI-1 (active form); experiment: SPR Biacore 2000, mAb captured by anti-Fc, single-cycle kinetics, 1:1 model
Protocol: First, the surface of a Sensor Chip CM5 (GE Healthcare, Uppsala, Sweden) was prepared using routine amine coupling for the capture of the mouse and human anti-Fc (Anti-human IgG (Fc) antibody & Anti-mouse IgG antibody kits, GE Healthcare). All monoclonal antibodies (mAbs) were diluted to 5 nM using HBS-EP running buffer. Each purified mAb was captured for three minutes on a different flow cell surface. Human PAI-1 was injected at various concentrations (2.5, 5, 10, 20 and 40 nM) with short dissociation times in between and a long dissociation time at the end (contact time: 120 seconds, short dissociation: 90 seconds; long dissociation: 1800 seconds, flow rate: 50 μl/min). The chip was regenerated by glycine-HCl, pH 1.7 buffer after each round of antibody-PAI-1 binding. Kinetics data analysis was performed using Biacore BIAevaluation software. The sensorgrams were double-referenced by subtracting the reference flow cell values and the blank buffer values. The sensorgrams were fitted by using the simulated kinetics 1:1 (Langmuir) model with local Rmax. (see FIG. 19).

[21] = target: T5, glycosylated human PAI-1 (active form); experiment: cell-based or functional assay; remark: listed apart in the source
human PAI-1 [22] = target: T3, human PAI-1; experiment: cell-based or functional assay; remark: listed apart in the source

T1 sequence (chain, as listed by the source limits assumed, chain 1 of 2): as the sequence (P05121 other isoform, or with tags, fused parts or gaps limits assumed) above
T1 sequence (P04004 20-478 limits assumed, chain 2 of 2): as the sequence (P04004 20-478 limits assumed, chain 2 of 2) above

B1: A44-hv7 (antibody, V domains shown)
VH: QMTLKESGPTLVKPTQTLSLTCSVSGESMTQGYWNWIRQFPGKALEYMGYITYSGSTYYNPSLKGRITITRQTSKNQYYLTLSSVTTVETATYYCARWHYGSPYYFDYWGQGTTLTVSS
VL: DIKMTQSPSSLSASVGDRVTITCKASQDINSYLSWLQQKPGKSPKTLIYRAQRSVEGVPSRFSGSGSGQDYSLTISSLQPEDLATYYCLQYDEFPPTFGGGTKLEIK
notes: humanized A44, HEK293; constant regions as for A44-hv1; also called LC4 x HC4; variant 7
With B1 the kon [1] was 2.5e+06 M⁻¹ s⁻¹, the Kd [2] was 0.0956 nM and the koff [3] was 0.000394 s⁻¹. For the same binder, the “Chromogenic Assay IC50” value (human PAI-1 [4]) was 0.59 nM, the kon [5] was 4.14e+06 M⁻¹ s⁻¹ and the koff [6] was 0.000239 s⁻¹. For the same binder, the Kd [7] was 0.0964 nM.

B2: A44-hv13 (antibody, V domains shown)
VH: QMQLQESGPGLVKPSETLSLTCTVSGDSMTNGYWNWIRQPPGKGLEYMGYITYSGSTYYNPSLKSRITISRDTSKNQYSLKLSSVTAADTAVYYCARWHYGSPYYFDYWGQGTLVTVSS
VL: DIKMTQSPSSLSASVGDRVTITCKASQDINSYLSWLQQKPGKSPKTLIYRAQRSVEGVPSRFSGSGSGQDYSLTISSLQPEDLGIYYCLQYDEFPPTFGGGTKLEIK
notes: humanized A44, HEK293; constant regions as for A44-hv1; also called LC2 x HC5b; variant 13
In the case of B2, the “active PAI-1 by uPA-PAI-1 complex ELISA, Cyno PAI-1, IC50” value (cynomolgus PAI-1 [8]) is reported as 0.0281 nM, the “active PAI-1 by uPA-PAI-1 complex ELISA, Cyno PAI-1, Y50%” value (cynomolgus PAI-1 [8]) is reported as 52.8% and the “active PAI-1 by uPA-PAI-1 complex ELISA, hPAI-1 Standard, IC50” value (human PAI-1 [9]) is reported as 0.166 nM. The “active PAI-1 by uPA-PAI-1 complex ELISA, hPAI-1 Standard, Y50%” value (human PAI-1 [9]) was 52.8%, the “active PAI-1 by uPA-PAI-1 complex ELISA, hPlasma TH1782, IC50” value (human PAI-1 [9]) was 0.0311 nM and the “active PAI-1 by uPA-PAI-1 complex ELISA, hPlasma TH1782, Y50%” value (human PAI-1 [9]) was 61.4%. The kon [1] was 2.12e+06 M⁻¹ s⁻¹, the Kd [2] was 0.115 nM and the koff [3] was 0.000436 s⁻¹. For the same binder, the Kd (human PAI-1 [10]) was 0.0164 nM, the koff (human PAI-1 [10]) was 2.52e-05 s⁻¹ and the kon (human PAI-1 [10]) was 1.54e+06 M⁻¹ s⁻¹. The “Plasminogen Activation IC50” value [11] was 1.82 nM, the “Plasminogen Activation Y50%” value [11] was 71.1% and the kon [5] was 2.4e+06 M⁻¹ s⁻¹. For the same binder, the koff [6] was 0.000243 s⁻¹, the Kd (cynomolgus PAI-1 [12]) was 0.027 nM and the koff (cynomolgus PAI-1 [12]) was 5.08e-05 s⁻¹. It also gave a kon (cynomolgus PAI-1 [12]) of 1.89e+06 M⁻¹ s⁻¹ and a Kd [7] of 0.179 nM.

B3: A71 (antibody, mouse IgG1, V domains shown)
VH: QVQLQQSGAELMKPGASVKISCKATGFTFSTYWIEWIKQRPGHGLDWIGEILPGSGNTNYNEKFKGKATFTADTSSNTVYMQLSSLTSEDSAVYYCARGGLYYNLDSWGQGTTLTVSS
VL: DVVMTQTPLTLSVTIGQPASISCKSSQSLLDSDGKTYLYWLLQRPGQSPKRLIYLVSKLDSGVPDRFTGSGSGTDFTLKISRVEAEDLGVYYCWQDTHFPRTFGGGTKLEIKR
notes: mouse IgG1/kappa; also called mA71; A71 (IgG1/k)
In the case of B3, the “plasmin generation, hepatic stellate cells, IC50abs” value (“plasmin generation … IC50abs” for short) [13] is reported as 8.61 nM, the “plasmin generation, hepatic stellate cells, Imax” value (shortened to “plasmin generation … Imax”) [13] is reported as 90% and the binding result (cynomolgus PAI-1 [14]) is reported as “binds”. For the same binder, the koff (human PAI-1 [15]) was no more than 0.0001 s⁻¹, the “Chromogenic Assays” value [16] was roughly 4 nM and the “Plasmin Generation” value [16] was 8.61 nM.

B4: A105 (antibody, mouse IgG1, V domains shown)
VH: QVQLQQSGAELMKPGASVKISCKATGFTFSIYWIEWVKQRPGLGLEWIGEILPGSGSTNYNEKFKGKATFTADTSSNTAFMQLSSLTSEDSAVYYCARGGLYYDLDYWGQGTILTVSS
VL: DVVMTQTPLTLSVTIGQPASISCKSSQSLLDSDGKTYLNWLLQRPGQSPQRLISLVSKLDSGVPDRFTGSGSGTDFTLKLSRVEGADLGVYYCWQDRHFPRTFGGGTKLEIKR
notes: mouse IgG1/kappa; also called mA105; A105 (IgG1/k)
For B4, the “plasmin generation … IC50abs” value [13] was 27 nM, the “plasmin generation … Imax” value [13] was 88% and the Kd (human PAI-1 [17]) was 0.0423 nM. The koff (human PAI-1 [17]) was 0.000164 s⁻¹, the Kd [18] was 0.042 nM and the binding result (cynomolgus PAI-1 [14]) was “binds”. For the same binder, the koff (human PAI-1 [15]) was no more than 0.0001 s⁻¹, the “Chromogenic Assays” value [16] was 7 nM and the “Plasmin Generation” value [16] was 27 nM.

B5: E16 (antibody, mouse IgG1, V domains shown)
VH: EVKLVESGGGLVKPGGSLKLSCAASGFTFSNYGMSWVRQTPEKGLGWVASLRTGGNTYYSDSVKGRFTISRDNDRNILYLQMSSLTSEDTAVYYCARGLRHWGYFDVWGAGTTVTVSS
VL: DIVMTQSHKFMSTSVGDRVNITCKASQDVSTAVGWYQQEPGQSPKLLIYSASNRHTGVPDRFTGSGSGTDFTFTISSVQAEDLAVYYCQQHYSSPWTFGGGTKLEIK
notes: mouse IgG1; also called mE16; E16 (IgG1)
B5 was tested, and the “EC50, % neutralization of hPAI-1 (chromogenic assay)” value (human PAI-1 [19]) was 1.24 nM, the “plasmin generation … IC50abs” value [13] was 4.74 nM and the “plasmin generation … Imax” value [13] was 95%. For the same binder, the koff (human PAI-1 [15]) was no more than 0.0001 s⁻¹, the “Chromogenic Assays” value [16] was 1.1 nM and the “Plasmin Generation” value [16] was 4.74 nM.

B6: APGv4 (antibody, V domains shown)
VH: QVQLVQSGAEVKKPGASVKVSCKASGYSFTDYNMNWVRQAPGQGLEWIGIIHPNSGTTTYNQKFKGRATLTVDQSTSTAYMELSSLRSEDTAVYYCARSKLRFFDYWGQGTLVTVSS
VL: DIQLTQSPSSLSASVGDRVTITCKASQDIYSYLSWFQQKPGKAPKTLIYRANRLIDGVPSRFSGSGSGQDYTFTISSLQPEDIATYYCLQYDEFPFTFGQGTKLEIK
notes: humanized APG; captured by anti-human IgG (Fc); also called APG variant 4
For B6, the Kd [20] was 0.038 nM, the koff [20] was 0.000359 s⁻¹ and the “human plasma clot lysis, IC50” value [21] was 2.82 nM. For the same binder, the “human plasma clot lysis, Imax @ 100 nM” value [21] was 116%, the “PAI-1 activity in human plasma (uPA-PAI-1 complex ELISA), IC50abs” value (human PAI-1 [22]) was 1.28 nM and the “PAI-1 activity in human plasma (uPA-PAI-1 complex ELISA), Imax” value (human PAI-1 [22]) was 94.4%.

B7: E21 (antibody, mouse IgG2b, V domains shown)
VH: EVQLQQSGAELVRSGASVKLSCTASGFNIKDYYMHWVKQRPEQGLEWIGWIDPENGDTEYDPKFQAKATMTADTSSNTAYLQLSSLTSEDTAVYYCMYGNYPYYFDYWGQGTTLTVSS
VL: DIQMTQTTSSLSASLGDRVTISCRASQDISNYLNWYQQKPDGTVKLLIYYTSRLHSGVPSRFSGSGSGTDYSLTISNLEQEDIATYFCQQGNTLPWTFGGGTKLEIK
notes: mouse IgG2b; also called mE21; E21 (IgG2b)
In the case of B7, the “EC50, % neutralization of hPAI-1 (chromogenic assay)” value (human PAI-1 [19]) is reported as 1.08 nM, the koff (human PAI-1 [15]) is reported as no more than 0.0001 s⁻¹ and the “Chromogenic Assays” value [16] is reported as 1.3 nM. For the same binder, the “Plasmin Generation” value [16] was 216 nM.
